Measurements reported in PMC2504289.

Target: T1, CH1° 0p (unphosphorylated C-terminal domain of histone H1°) (UniProt P10922 98-194)
T1 sequence: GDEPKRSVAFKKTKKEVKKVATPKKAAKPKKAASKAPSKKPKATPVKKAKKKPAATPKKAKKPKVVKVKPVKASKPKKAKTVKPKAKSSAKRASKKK
Test: EMSA

B1: 50 bp dsDNA fragment (dsDNA)
DNA 1: CTATGATATATAGATAGTTAATGTAATATGATATAGATATAGGGATCC
DNA 2: GGATCCCTATATCTATATCATATTACATTAACTATCTATATATCATAG
B1: binds.
